The term Kd denotes the free concentration of one partner at which half of the binding sites on the other are occupied at equilibrium, for simple one-to-one binding.

B1: E. coli FtsN cytoplasmic tail peptide, residues 1-32 (EcFtsN^1-32) [E. coli] / E. coli FtsA (EcFtsA), full length [E. coli] (parent complex)
chain 1: MAQRDYVRRSQPAPSRRKKSTSRKKQRNLPAV
chain 2: MIKATDRKLVVGLEIGTAKVAALVGEVLPDGMVNIIGVGSCPSRGMDKGGVNDLESVVKCVQRAIDQAELMADCQISSVYLALSGKHISCQNEIGMVPISEEEVTQEDVENVVHTAKSVRVRDEHRVLHVIPQEYAIDYQEGIKNPVGLSGVRMQAKVHLITCHNDMAKNIVKAVERCGLKVDQLIFAGLASSYSVLTEDERELGVCVVDIGGGTMDIAVYTGGALRHTKVIPYAGNVVTSDIAYAFGTPPSDAEAIKVRHGCALGSIVGKDESVEVPSVGGRPPRSLQRQTLAEVIEPRYTELLNLVNEEILQLQEKLRQQGVKHHLAAGIVLTGGAAQIEGLAACAQRVFHTQVRIGAPLNITGLTDYAQEPYYSTAVGLLHYGKESHLNGEAEVEKRVTASVGSWIKRLNSWLRKEF

The variants in the experiment derive from B1. The experiment is described as follows: SPR; FtsA immobilised on CM5 chip via amide coupling; peptide 1:2 dilution series from 20 μM; maximum response fixed during fitting (asterisk).
Take chain 1 R16A, chain 1 R17A, chain 1 K18S, chain 1 K19A: the Kd is ~166 µM.

Take chain 1 R23A, chain 1 K24S, chain 1 K25A: the Kd was ~80.6 µM.

Values taken from publication PMC7613929 (Nature microbiology, 2022).
